From US20240109974A1 (SHANDONG SIMCERE BIOPHARMACEUTICAL, published 2024)
Changes are numbered by the printed parent chain. Blank lines part the entries; values can stand above or below the binder they belong to.

Columns and labels:
[1] = molecular target: T1, human TNFR2 on the surface of CHO-TNFR2 cells (human, UniProt P20333 23-461); assay: flow cytometry on CHO-TNFR2 cells; AUC, reference itself
T1 construct: whole, on cells
T1 sequence (looked up): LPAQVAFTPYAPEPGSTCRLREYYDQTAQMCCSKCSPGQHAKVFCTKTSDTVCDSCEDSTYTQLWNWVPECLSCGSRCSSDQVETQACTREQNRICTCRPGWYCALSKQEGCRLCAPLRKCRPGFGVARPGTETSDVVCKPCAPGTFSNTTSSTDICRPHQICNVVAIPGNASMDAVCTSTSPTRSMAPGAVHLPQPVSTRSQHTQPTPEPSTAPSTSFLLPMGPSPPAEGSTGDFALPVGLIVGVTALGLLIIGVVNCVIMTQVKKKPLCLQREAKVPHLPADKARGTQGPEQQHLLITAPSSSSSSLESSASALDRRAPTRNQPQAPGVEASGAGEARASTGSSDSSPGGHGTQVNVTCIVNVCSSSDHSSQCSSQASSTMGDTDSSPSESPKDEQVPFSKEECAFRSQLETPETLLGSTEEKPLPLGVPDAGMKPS
Experimental: The transfected full-length plasmid of human TNFR2 was purchased from Sino Biological (Cat #HG10417-UT, NCBI Ref Seq: NM_001066.2). The experiment was conducted at a cell density within 80%. The cell medium was discarded; the cells were rinsed with PBS, and digested with 1 ml trypsin for 2 minutes; the digestion was stopped with a Ham's F12 complete medium containing 10% FBS, and then a cell suspension was made. The cell suspension was counted, and then an appropriate amount of cell suspension was centrifuged at 350×g; the supernatant was discarded; a corresponding volume of blocking solution (10% FBS+PBS) at a density of 1×10⁷ cells/ml was added to resuspend the cells, and the mixture was incubated at 4° C. for 30 minutes. After the incubation, the mixture was centrifuged at 350×g to remove the supernatant, and the cells were resuspended in a staining buffer (2% FBS+PBS) to a density of 2×10⁶ cells/ml, and spread onto a 96-well plate, with 50 μl of cell suspension added to each well for later use. The antibody was diluted with PBS for 10-fold gradient dilution from the highest concentration of 20 μg/m (twice the concentration); the diluted antibody was added to the well containing 50 μl of cell suspension, and placed on a microplate shaker for shaking at 500 rpm for 1 minute, so that the antibody was fully mixed with the cells; the mixture was incubated at 4° C. for 1 h. After the incubation, the cells were washed twice with the staining buffer, with 100 μl per well, and centrifuged at 350-g for 5 minutes, and the supernatant was discarded. […] After the staining, similarly, the cells were washed twice with the staining buffer; finally, the cells were resuspended in 200 μl of staining buffer; signals were detected by a flow cytometer (Thermo Attune NxT). […] The binding curve of an antibody was drawn with antibody concentration as the abscissa and corresponding mean fluorescence intensity (MFI) fold as the ordinate, and fitted with four parameters (GraphPad Prism9) to calculate the EC50 value.

[2] = molecular target: T1, human TNFR2 on the surface of CHO-TNFR2 …; assay: flow cytometry on CHO-TNFR2 cells; EC50 against 001-WT
Experimental: The transfected full-length plasmid of human TNFR2 was purchased from Sino Biological (Cat #HG10417-UT, NCBI Ref Seq: NM_001066.2). The experiment was conducted at a cell density within 80%. The cell medium was discarded; the cells were rinsed with PBS, and digested with 1 ml trypsin for 2 minutes; the digestion was stopped with a Ham's F12 complete medium containing 10% FBS, and then a cell suspension was made. The cell suspension was counted, and then an appropriate amount of cell suspension was centrifuged at 350×g; the supernatant was discarded; a corresponding volume of blocking solution (10% FBS+PBS) at a density of 1×10⁷ cells/ml was added to resuspend the cells, and the mixture was incubated at 4° C. for 30 minutes. After the incubation, the mixture was centrifuged at 350×g to remove the supernatant, and the cells were resuspended in a staining buffer (2% FBS+PBS) to a density of 2×10⁶ cells/ml, and spread onto a 96-well plate, with 50 μl of cell suspension added to each well for later use. The antibody was diluted with PBS for 10-fold gradient dilution from the highest concentration of 20 μg/m (twice the concentration); the diluted antibody was added to the well containing 50 μl of cell suspension, and placed on a microplate shaker for shaking at 500 rpm for 1 minute, so that the antibody was fully mixed with the cells; the mixture was incubated at 4° C. for 1 h. After the incubation, the cells were washed twice with the staining buffer, with 100 μl per well, and centrifuged at 350-g for 5 minutes, and the supernatant was discarded. The PE goat anti-Human IgG Fc antibody (ebioscience, Cat #12-4998-82) was diluted 250-fold with the staining buffer, with a volume of 100 μl per well added to the washed cell wells; the mixture was mixed evenly, and stained at 4° C. for 30 minutes. After the staining, similarly, the cells were washed twice with the staining buffer; finally, the cells were resuspended in 200 μl of staining buffer; signals were detected by a flow cytometer (Thermo Attune NxT). The stronger the signal, the stronger the binding ability of an antibody to TNFR2. The binding curve of an antibody was drawn with antibody concentration as the abscissa and corresponding mean fluorescence intensity (MFI) fold as the ordinate, and fitted with four parameters (GraphPad Prism9) to calculate the EC50 value.

[3] = molecular target: T2, Cynomolgus TNFR2-His (Sino 90102-C08H) (cynomolgus monkey, UniProt A0A2K5VET2 132-366); assay: ELISA, cynomolgus TNFR2-His coated; EC50 against 001-WT
T2 construct: Bought protein; also called cynomolgus monkey TNFR2; recombinant cynomolgus monkey TNFR2 protein; not shown: His tag
T2 sequence: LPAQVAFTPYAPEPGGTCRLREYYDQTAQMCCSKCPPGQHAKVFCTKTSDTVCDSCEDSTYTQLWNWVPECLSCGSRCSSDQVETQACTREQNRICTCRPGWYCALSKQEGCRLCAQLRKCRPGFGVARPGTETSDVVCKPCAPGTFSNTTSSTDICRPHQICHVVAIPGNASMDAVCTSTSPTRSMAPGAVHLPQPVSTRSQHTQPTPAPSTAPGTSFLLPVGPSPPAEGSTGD
Experimental: The test humanized antibody against TNFR2 (as described in Example 1, the antibody was comprised of variable regions linked to IgG-Fc; the WT chimeric antibody also adopted the IgG-Fc structure) was subjected to 3.33-fold gradient dilution, loaded with 100 μl/well, and incubated with shaking at room temperature for 1.5 hours. The plate was washed, and then a working solution of murine anti-human IgG Fc-HRP (diluted at 1:10000) was added, loaded with 100 μl/well, and incubated with shaking at room temperature for 1.0 hour. The plate was washed again, and then the substrate TMB of HRP was added to develop colour. A stop solution was added to stop the reaction, and then a microplate reader (MD 13) was used to read the absorbance value. The binding curve of an antibody was drawn with antibody concentration as the abscissa and corresponding OD value as the ordinate, and fitted with four parameters (GraphPad Prism9) to calculate the EC50 value. The smaller the EC50 value, the stronger the binding ability of an antibody to human/cynomolgus monkey TNFR2. The binding effect of a humanized antibody was normalized to its corresponding human-murine chimeric antibody WT (see SEQ ID NOs: 38-43 for the sequence). The higher the percentage value, the better the binding effect of the humanized antibody. The results of binding of an anti-TNFR2 antibody to a human TNFR2 protein are shown in FIG. 1 and Table 4, and the results of binding of an anti-TNFR2 antibody to cynomolgus monkey TNFR2 are shown in FIG. 2 and Table 4.

B2: 001-Hu5 (antibody, V domains shown)
VH: EVQLVESGGGLVQPGGSLRLSCAASGFAFSTYDLSWVRQAPGKGLEWVAYINNGGISTYYSDTVKGRFTISRDNAKNTLYLQMNSLRAEDTAVYYCVRGPFYGSANYFDYWGQGTLVTVSS
VL: DIQMTQSPSSLSASVGDRVTITCRTSESIYSNLPWYQQKPGKSPKLLVYDATKLAEGVPSRFSGSGSGTDYTLTISSLQPEDFATYYCQHFWVTPWTFGQGTKVEIK
notes: Humanized form of #001; also called VH1 + VL4
% Relative activity (WT antibody/test antibody) [2]: 123%
% Relative activity (WT antibody/test antibody) [3]: 105%

B5: 001-Hu4 (antibody, V domains shown)
VH: B2 VH with T78S
VL: B2 VL
notes: Humanized form of #001; also called VH2 + VL4
% Relative activity (WT antibody/test antibody) [2]: 129%
% Relative activity (WT antibody/test antibody) [3]: 106%

B7: 219-WT (antibody, V domains shown)
VH: EVQLQESGAELVRPGASVKLSCKASGYSFTNYWMNWVKQRPGQGLEWIGMIHPSDTETRLNQNFKDKATLTVDKSSSTSYMQLSSPTSEDSAVYYCARGEGLGAARSVSMDYWGQGTTVTVSS
VL: DILMTQSPSSLSASLGDRVTISCRASQDISNYLNWYQQKPDGTVKVLIYYTAILHSGVPSRFSGSGSGTDYSLTISNLEQEDIATYFCQQGNTLPWTFGGGTKLEIK
notes: Human-murine chimeric wild-type molecule
% Relative activity (Test antibody/WT antibody) [1]: 100%

Second part, the binder after the results:

% Relative activity (Test antibody/WT antibody) [1]: 100%
B1: 001-WT (antibody, V domains shown)
VH: B2 VH with V5Q, R19N, A40T, G42E, G44R, N84S, R87K, A88S, V93M, L116T
VL: EIVMTQSPASLSLSVGETVTITCRTSESIYSNLPWYQQKQGKSPQLLVYDATKLAEGVPSRFSGSESGTQYSLKINSLQSEDFGTYYCQHFWVTPWTFGGGTKLEIK
notes: Human-murine chimeric wild-type molecule; also called human-murine chimeric antibody WT of #001

% Relative activity (WT antibody/test antibody) [2]: 78%
% Relative activity (WT antibody/test antibody) [3]: 108%
B3: 001-Hu1 (antibody, V domains shown)
VH: B2 VH
VL: B2 VL with S43A, V48L
notes: Humanized form of #001; also called VH1 + VL1

% Relative activity (WT antibody/test antibody) [2]: 101%
% Relative activity (WT antibody/test antibody) [3]: 105%
B4: 001-Hu3 (antibody, V domains shown)
VH: B2 VH
VL: B2 VL with S43A, V48I
notes: Humanized form of #001; also called VH1 + VL3

% Relative activity (WT antibody/test antibody) [2]: 48%
% Relative activity (WT antibody/test antibody) [3]: 107%
B6: 001-Hu2 (antibody, V domains shown)
VH: B2 VH with T78S
VL: B2 VL with V48I, Y71F
notes: Humanized form of #001; also called VH2 + VL2

% Relative activity (Test antibody/WT antibody) [1]: 100%
B8: 224-WT (antibody, V domains shown)
VH: EVQLQESGPEIVKPGASVKLSCTASGFNNKDIYMHWVKQRPEQGLEWIGRIDPATGNTKHDPKFQDKATLSSDTSSNTAYLQFSSLTSEDTAVYYCAHSPYGDFGAMDYWGQGTTVTVSS
VL: DIQMTQSPAIMSASLGERVTMTCTASSSVSSNYLHWYQQKPGSSPKLWIYSTSNLPSGVPARFSGSGSGTSYSLTISSMEAEDAATYYCHQYHRSPWTFGGGTKLEIK
notes: Human-murine chimeric wild-type molecule; also called human-murine chimeric antibody WT of #224
